For experiment [1], the target named is T1, SARS-CoV-2 receptor binding domain (RBD) (SARS-CoV-2, UniProt P0DTC2 319-591). Description: BLI; mAb loaded on anti-human Fc probe, dipped in antigen. Background: Biolayer interferometry detects binding as a change in optical thickness at a sensor tip.
For experiment [2], the target named is T1, SARS-CoV-2 receptor binding domain (RBD). The experiment in a line: BLI: mAb on anti-human Fc probe, dipped in the antigen.
The target is the same in experiment [3]. The experiment in a line: BLI, mAb on anti-human Fc probe, antigen in solution.
For experiment [4] the target is unchanged. Description: BLI: mAb on anti-human Fc probe, dipped in the antigen. The source holds these as a separate data set.
For experiment [5] the target is unchanged. The description is as above. This is another data set of the same source.
The target is the same in experiment [6]. Described as above. The source holds these as a separate data set.
The target is the same in experiment [7]. Described as above. The source holds these as a separate data set.
Experiment [8] has the same target. The experiment in a line: BLI, mAb on anti-human Fc probe, antigen in solution. This is another data set of the same source.
Experiment [9] has the same target. Description: BLI: mAb on anti-human Fc probe, dipped in the antigen. The source holds these as a separate data set.
The target is the same in experiment [10]. Described as above. The source holds these as a separate data set.
Experiment [11] has the same target. Described as above. This is another data set of the same source.

Numbering of substitutions follows the chain as printed.

B1: CV2-66 (antibody, V domains shown)
VH: EVQLVESGGGLVQPGRSLRLSCTASGFTFGDYAMSWFRQAPGKGLEWVGFIRSKAYGGTTEYAASVKGRFTISRDDSKSIAYLQMNSLKTEDTAVYYCTRVHHCSGGSCYGYYFDYWGQGTLVTVSS
VL: EIVMTQSPATLSVSPGERATLSCRASQSVSSNLAWYQQKPGQAPRLLIYGASTRATGIPARFSGSGSGTEFTLTISSLQSEDFAVYYCQQYNNWVTFGGGTKVEIK
In the case of B1, the binding result in experiment [1] is given as “binds”.

B2: CV2-56 (antibody, V domains shown)
VH: QVQLVESGGGVVQPGNSLRLSCVASGFKFSSSAMHWVRQAPGKGLEWVAIIWFHGNTKFYGDFVKGRFTVSRDNSNNTLHLQMNSLRAEDTAVYHCARASSDYGGAFDIWGQGTMVTVSS
VL: EIVMTQSPATLSVSLGERATLSCRASQSVTSSLAWYQHKPGQAPRLLIYGASTRATGIPARFSGSGSGTEFTLTISSLQSEDFAVYFCQQYNNWPPWTFGQGTKVEVT
Consider B2, for which, in experiment [2], the binding result is reported as “no binding”.

B3: CV1 (antibody, V domains shown)
VH: QVQLQESGPGLVKPSETLSLTCTVSGYSISSGYYWGWIRQPPGKGLEWIGSIYHSGSTYYNPSLKSRVTISVDTSKNQFSLKLSSVTAADTAVYYCARTPLSLRLRYNWYFDLWGRGTLVTVSS
VL: not shown
notes: expressed as IgG
For B3, in [3], the binding result is given as “no binding”.

B4: CV5 (antibody, V domains shown)
VH: QVQLVQSGAEVKKPGASVKVTCKASGYTFTSYYLHWVRQAPGQGLEWMGIINPSGGTTSYAQKFQGRVTMTRDTSTSTVYMELSSLRSEDTAVYYCARAGRRYSSSDDGAFDIWGQGTMVTVSS
VL: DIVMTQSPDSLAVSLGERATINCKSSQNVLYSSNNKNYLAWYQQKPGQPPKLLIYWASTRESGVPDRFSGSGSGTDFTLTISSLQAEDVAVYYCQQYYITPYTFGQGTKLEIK
With B4, the binding result in experiment [1] is “binds”.

B5: CV2-41 (antibody, V domains shown)
VH: QVQLQQWGAGLLKPSETLSLTCAVYGGSFSGYYWSWIRQPPGKGLEWIGEINHSGSTNYNPSLKSRVTISVDTSTNQFSLKLSSVTAADTAVYYCARRVHYDILTGFYGGALITRAFDIWGQGTMVTVSS
VL: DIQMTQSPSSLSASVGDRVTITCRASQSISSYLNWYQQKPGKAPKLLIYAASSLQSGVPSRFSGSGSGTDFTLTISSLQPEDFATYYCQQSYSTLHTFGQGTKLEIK
Consider B5, for which, in experiment [1], the binding result is “binds”.

B6: CV2-52 (antibody, V domains shown)
VH: QVQLVESGGGVVQPGRSLRLSCAASGFTFSSYAMHWVRQAPGKGLEWVAVISYDGINKYYADSVKGRFTISRDSSKNTLYLQMNSLRAEDTAVYYCARGGVGYQLLFGNDWFDPWGQGTLVTVSS
VL: QSALTQPASVSGSPGQSITISCTGTSSDVGGYNYVSWYQQHPGKAPKLMIYEVSNRPSGVSNRFSGSKSGNTASLTISGLQAEDESDYYCSSYTTSSTLYVFGTGTKVTVL
Consider B6, for which, in experiment [4], the binding result is “no binding”.

B7: CV2-7 (antibody, V domains shown)
VH: EVQLVQSGAEVKKPGESLKISCKGSGNSFTSYWIGWVRQMPGKGLEWMGIIYPGDSDTRYSPSFQGQVTISADKSISTAYLQWSSLKASDTAMYYCARHRNYDILTGYRYYFDYWGQGTLVTVSS
VL: not shown
In the case of B7, the binding result in experiment [1] is on record as “binds”.

B8: CV2-75 (antibody, V domains shown)
VH: QVQLQESGPGLVKPSETLSLTCTVSGGSISSYYWSWIRQPPGKGLEWIGYVYYSGSTNYNPSLKSRVTISVDTSKNEFSLKLSSVTAADTAVYYCASSQRPDGNLYYFDYWGQGTLVTVSS
VL: SYVLTQPPSVSVAPGQTARITCGGNNIGSKTVHWYQQKPGQAPVLVVYDDSDRPSGIPERFSGSNSGNTATLTISRVEAGDEADYYCQVWDSSSDHYVFGTGTKVTVL
B8: the binding result in experiment [1] is recorded as “binds”.

B9: CV30 (antibody, V domains shown)
VH: EVQLVESGGGLIQPGGSLRLSCAASGVIVSSNYMSWVRQAPGKGLEWVSVIYSGGSTYYADSVKGRFTISRDNSKNTLYLQMNSLRAEDTAVYYCARDLDVSGGMDVWGQGTTVTVSS
VL: not shown
Turning to B9, the binding result in experiment [1] is listed as “binds”.

B10: CV2-71 (antibody, V domains shown)
VH: EVQLLESGGGLGQPGGSLRLSCAASGFTFSNYAMSWVRQAPGKGLEWVSVISGSGGSTYYADSVKGRFTISRDNSKNTLYLQMNSLRAEDTAVYYCAKAGAVGYYDSNGYYYDVDYYYGMDVWGQGTTVTVSS
VL: QSVLTQPPSVSGAPGQRVTISCTGSSSNIGAGYDVHWYQQLPGTAPKLLIYGNSNRPSGVPDRFSGSKSGTSASLAITGLQAEDEADYYCQSYDSSLSGYVFGTGTKVTVL
Turning to B10, the binding result in [1] is “binds”.

B11: CV43 (antibody, V domains shown)
VH: QVQLVESGGGVVQPGRSLRLSCAASGFTFSSYAMHWVRQAPGKGLEWVAVISYDGSNKYYADSVKGRFTISRDNSKNTLYLQMNSLRAEDTAVYYCARVTVVHFDYWGQGTLVTVSS
VL: NFMLTQPHSVSESPGKTVTISCTGSSGSIASNYVQWYQQRPGSAPTTVIYEDNQRPSGVPDRFSGSIDSSSNSASLTISGLKTEDEADYYCQSYDSSNWVFGGGTKLTVL
Consider B11, for which the binding result in experiment [1] was “binds”.

B12: CV2-48 (antibody, V domains shown)
VH: QLQLQESGPGLVKPSETLSLTCTVSGGSISSSSYYWGWIRQPPGKGLEWIGNIYYSGITYYNPSLKSRVTISVDTSKNQFSLKLSSVTAADTAVYYCARQLWGYYDSSGYYAFDIWGQGTMVTVSS
VL: QSALTQPASVSGSPGQSITISCTGTSSDVGSYNLVSWYQQHPGKAPKLMIYEGSKRPSGVSNRFSGSKSGNTASLTISGLQAEDEAAYYCCSYVGSSTYVVFGGGTKLTVL
In the case of B12, the binding result in [5] is given as “binds”.

B13: CV2-58 (antibody, V domains shown)
VH: QVQLVQSGAEVKKPGSSVKVSCKASGGTFSSYAISWVRQAPGQGLEWMGRIIPILDITNYAQKFQGRVTITADKSTSTAYMELSSLRSEDTAVYYCARGLWRSSIAGLHVPYGMDVWGQGTTVTVSS
VL: QSVLTQPPSVSAAPGQKVTISCSGSSSNIGNNYVSWYQQLPGTAPQLLIYDNNKRPSRIPDRFSGSKSGTSATLGITGLQTGDEAVYYCGTWDSSLSAVVFGGGTKLTVL
For the molecule B13, in experiment [6], the binding result is “no binding”.

B14: CV2-59 (antibody, V domains shown)
VH: QVQLVQSGAEVKKPGASVKVSCKVSGYTLTELSMHWVRQAPGKGLEWMGGFDPEDGETIYAQKFQGRVTMTEDTSTDTAYMELSSLRSEDTAVYYCATGPTVTTVTNWFDPWGQGTLVTVSS
VL: B13 VL with Q46K, R58G, V86D, V99E, G103T, L107V
With B14, the binding result in [7] is “no binding”.

B15: CV11 (antibody, V domains shown)
VH: QVQLQESGPGLVKPSQTLSLTCTVSGGSISSGGYYWSWIRQHPGKGLEWIGYIYYSGSTYYNPSLKSRVTISVDTSKNQFSLKLSSVTAADTAVYYCARETTGHFDYWGQGTLVTVSS
VL: EIVLTQSPATLSLSPGERATLSCRASQSVSSYLAWYQQKPGQAPRLLIYDASNRATGIPARFSGSGSGTDFTLTISSLEPEDFAVYYCQQRSNWPPIFTFGPGTKVDIK
For B15, the binding result in [8] was “no binding”.

B16: CV2-57 (antibody, V domains shown)
VH: QVQLVQSGAEVKKPGASVKVSCKASGYNFISYGISWVRQAPGQGLEWMGWISAYNGNTNYAQKLQGRVTMTTDTSTSTAYMELRSLRSDDTAVYYCARVRIFGVVIIVDTAMVLDYWGQGTLVTVSS
VL: B15 VL with I97R, F98L, P102G, D107E
Consider B16, for which the binding result in experiment [9] is “no binding”.

B17: CV2-54 (antibody, V domains shown)
VH: QVQLVQSGAEVKKPGSSVKVSCKASGGTFSSYTISWVRQAPGQGLEWMGGIIPIFGTANYAQNFQGRVTITADESTSTAYMELSSLRSEDTAVYYCARVSYYDSSGYYTDYWGQGTLVTVSS
VL: B15 VL with Y32F, S76N, I97E, F98Y, P102Q, V106L, D107E
As for B17, the binding result in experiment [10] is on record as “no binding”.

B18: CV2-53 (antibody, V domains shown)
VH: B17 VH with S30T, T33A, S35T, N63K, S100G, Y101A, T109Q, Y111L, Q114R
VL: B15 VL with I97V, F98I, P102Q, K105R, V106L, D107E
For B18, the binding result in experiment [11] was “no binding”.

B19: CV2-65 (antibody, V domains shown)
VH: QVQLQESGPGLVKPSETLSLTCTVSGGSISSYYWSWIRQPAGKGLEWIGRIYTSGSTNYNPSLKSRVTMSVDTSKNQFSLKLSSVTAADTAVYYCAREDSYGSGSTGAFDIWGQGTMVTVSS
VL: SYELTQPPSVSVSPGQTARITCSGDALPKQYAYWYQQKPGQAPVLVIYKDSERPSGIPERFSGSSSGTTVTLTISGVQAEDEADYYCQSADSSGTYVFGTGTKVTVL
With B19, the binding result in [1] was “binds”.

For the origin of these results see patent US20230212266A1 (FRED HUTCHINSON CANCER CENTER, published 2023).
